Data taken from doi:10.1101/2024.05.15.594416 (bioRxiv, 2024).

What was measured:
[1] = target: T1, soluble CD14 Surface II mutant (R90E/R92E/R117E) (human, UniProt P08571 20-367, R90E | R92E | R117E); experiment: BLI
T1 sequence (looked up): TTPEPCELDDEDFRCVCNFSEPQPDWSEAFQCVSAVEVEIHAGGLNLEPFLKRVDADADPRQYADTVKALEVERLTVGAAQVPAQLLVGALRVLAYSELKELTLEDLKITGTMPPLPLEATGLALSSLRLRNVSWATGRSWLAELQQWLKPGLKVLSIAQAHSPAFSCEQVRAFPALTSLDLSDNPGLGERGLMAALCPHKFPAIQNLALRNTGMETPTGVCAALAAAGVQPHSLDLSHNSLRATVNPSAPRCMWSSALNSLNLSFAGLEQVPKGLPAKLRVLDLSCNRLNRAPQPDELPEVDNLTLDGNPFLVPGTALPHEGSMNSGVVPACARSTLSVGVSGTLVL

[2] = target: T2, soluble CD14 (sCD14), wildtype (human, UniProt P08571 20-367); experiment: BLI
T2 sequence (looked up): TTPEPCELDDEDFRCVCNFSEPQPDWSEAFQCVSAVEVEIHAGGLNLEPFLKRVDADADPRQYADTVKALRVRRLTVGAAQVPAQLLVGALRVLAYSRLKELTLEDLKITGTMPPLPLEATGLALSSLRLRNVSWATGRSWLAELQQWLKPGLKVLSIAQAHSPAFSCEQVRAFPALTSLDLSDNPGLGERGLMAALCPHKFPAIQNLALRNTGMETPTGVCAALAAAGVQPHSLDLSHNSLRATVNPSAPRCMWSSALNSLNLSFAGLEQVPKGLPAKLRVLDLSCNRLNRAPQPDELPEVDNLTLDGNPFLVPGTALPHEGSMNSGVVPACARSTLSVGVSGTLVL

Kd [1]: 10 µM
Kd [2]: 3.9 µM
B1: S100A9/C3S/P114C, biotinylated (natural protein, human)
chain: TSKMSQLERNIETIINTFHQYSVKLGHPDTLNQGEFKELVRKDLQNFLKKENKNEKVIEHIMEDLDTNADKQLSFEEFIMLMARLTWASHEKMHEGDEGPGHHHKPGLGEGTC
modifications: biotin (EZ-link BMCC kit; biotinylation confirmed by MALDI-TOF)
